In US20180142261A1:

Target: mouse CD4 (mouse) (UniProt P06332)
Experiment: flow cytometry, primary C57BL/6 splenocytes ex vivo, siCy5 signal (FIG. 4B)

UniProt P06332, sequence (P06332 27-457): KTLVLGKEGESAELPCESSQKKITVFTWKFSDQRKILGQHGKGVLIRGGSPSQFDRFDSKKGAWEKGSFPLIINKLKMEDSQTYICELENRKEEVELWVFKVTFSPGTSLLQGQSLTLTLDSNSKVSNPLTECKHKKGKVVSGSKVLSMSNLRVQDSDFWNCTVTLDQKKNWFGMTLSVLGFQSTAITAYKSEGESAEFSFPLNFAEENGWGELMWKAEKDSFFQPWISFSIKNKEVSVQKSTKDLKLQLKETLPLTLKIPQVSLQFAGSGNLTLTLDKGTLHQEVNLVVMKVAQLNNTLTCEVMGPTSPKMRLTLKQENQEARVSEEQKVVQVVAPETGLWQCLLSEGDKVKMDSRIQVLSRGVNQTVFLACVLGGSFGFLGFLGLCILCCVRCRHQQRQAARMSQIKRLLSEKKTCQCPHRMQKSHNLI

## isoLNPs: lipid nanoparticles coated with an isotype control mAb (antibody)
  percent of CD4+ cells that bind: 1%

## tLNPs: lipid nanoparticles (siRNA-encapsulating) conjugated to DTT-reduced anti-mouse CD4 monoclonal antibody (clone YTS.177)
  percent of CD4+ cells that bind: 100%
